From patent US20160333063A1, “SOLUBLE HIGH MOLECULAR WEIGHT (HMW) TAU SPECIES AND APPLICATIONS THEREOF” (THE GENERAL HOSPITAL CORPORATION, priority 2013, published 2016)

Molecular target: amyloid beta (Aβ, measured as Aβ40) in conditioned medium from Tg2576 neuronal cultures (TgCM) (human and murine) (UniProt P05067)
Assay: immunodepletion of TgCM with 9 µg 6E10 and Protein G-Sepharose beads; Aβ40 ELISA of the supernatant (TgCM about 12 nM Aβ40 before depletion)

amyloid beta (Aβ, measured as Aβ40) in conditioned medium from Tg2576 neuronal cultures (TgCM) (human and murine), sequence (P05067 672-711 limits assumed): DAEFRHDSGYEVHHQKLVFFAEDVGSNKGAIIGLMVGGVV

## 6E10 (Signet), a high-titer mouse monoclonal Aβ antibody reactive to amino acid residue 1-16 of beta amyloid
  Aβ40 left in the medium after immunodepletion: 0.1 nM
